# What was measured:
# [1] = biological target: HIV-1 92TH021 envelope protein (Env) on pseudotyped virus (HIV-1 strain 92TH021); experiment: cell-based or functional assay
# [2] = biological target: HIV-1 JR-CSF envelope protein (Env) on pseudotyped virus (HIV-1 isolate JR-CSF) (UniProt P20871); experiment: cell-based or functional assay
# [3] = biological target: HIV-1 94UG103 envelope protein (Env) on pseudotyped virus (HIV-1 strain 94UG103); experiment: cell-based or functional assay
# [4] = biological target: HIV-1 MGRM-D-018 envelope glycoprotein (Env) on pseudovirus (HIV-1); experiment: cell-based or functional assay
# [5] = biological target: HIV-1 92UG024 envelope glycoprotein (Env) on pseudovirus (HIV-1); experiment: cell-based or functional assay
# [6] = biological target: HIV-1 APV6 envelope glycoprotein (Env) on pseudovirus (HIV-1); experiment: cell-based or functional assay
# [7] = biological target: HIV-1 APV13 envelope glycoprotein (Env) on pseudovirus (HIV-1); experiment: cell-based or functional assay
# [8] = biological target: HIV-1 93IN905 envelope glycoprotein (Env) on pseudovirus (HIV-1); experiment: cell-based or functional assay
# [9] = biological target: HIV-1 MGRM-D-001 envelope glycoprotein (Env) on pseudovirus (HIV-1); experiment: cell-based or functional assay
# [10] = biological target: HIV-1 APV17 envelope glycoprotein (Env) on pseudovirus (HIV-1); experiment: cell-based or functional assay
# [11] = biological target: HIV-1 NL43 envelope glycoprotein (Env) on pseudovirus (HIV-1); experiment: cell-based or functional assay
# [12] = biological target: HIV-1 MGRM-C-027 envelope glycoprotein (Env) on pseudovirus (HIV-1); experiment: cell-based or functional assay
# [13] = biological target: HIV-1 Env of isolate 93UG077 (Clade A) (HIV-1); experiment: cell-based or functional assay
# [14] = biological target: HIV-1 Env of isolate IAVI-C18 (Clade C) (HIV-1); experiment: cell-based or functional assay
# [15] = biological target: HIV-1 Env of isolate 92UG024 (Clade D) (HIV-1); experiment: cell-based or functional assay
# [16] = biological target: HIV-1 Env of isolate CMU02 (CRF01_AE) (HIV-1); experiment: cell-based or functional assay
# [17] = biological target: HIV-1 Env of isolate 92UG005 (Clade D) (HIV-1); experiment: cell-based or functional assay
# [18] = biological target: HIV-1 Env of isolate 92BR020 (Clade B) (HIV-1); experiment: cell-based or functional assay
# [19] = biological target: HIV-1 Env of isolate IAVI-C22 (Clade C) (HIV-1); experiment: cell-based or functional assay
# [20] = biological target: JR-FL GP120 ΔV3 (HIV-1 JR-FL); experiment: ELISA, antigen-coated wells, mAb titrated; EC50 by nonlinear regression
# [21] = biological target: HIV-1 Env of isolate MGRM-D-019 (pseudovirus) (HIV-1); experiment: cell-based or functional assay
# [22] = biological target: HIV-1 JR-CSF Env I323A (HIV-1 (isolate JR-CSF, clade B)) (UniProt P20871); experiment: cell-based or functional assay
# [23] = biological target: HIV-1 JR-CSF Env K305A (HIV-1 (isolate JR-CSF, clade B)) (UniProt P20871); experiment: cell-based or functional assay
# [24] = biological target: HIV-1 envelope glycoprotein (Env) of isolate 94UG103 (HIV-1); experiment: cell-based or functional assay
# [25] = biological target: HIV-1 JR-CSF Env T202A (HIV-1 (isolate JR-CSF)) (UniProt P20871); experiment: cell-based or functional assay
# [26] = biological target: HIV-1 JR-CSF Env T320A (HIV-1 (isolate JR-CSF, clade B)) (UniProt P20871); experiment: cell-based or functional assay
# [27] = biological target: HIV-1 JR-CSF Env Q337A (HIV-1 isolate JR-CSF) (UniProt P20871); experiment: cell-based or functional assay
# [28] = biological target: HIV-1 JR-CSF Env N355A (HIV-1 isolate JR-CSF) (UniProt P20871); experiment: cell-based or functional assay
# [29] = biological target: HIV-1 JR-CSF Env R327A (HIV-1 isolate JR-CSF) (UniProt P20871); experiment: cell-based or functional assay
# [30] = biological target: HIV-1 JR-CSF Env I309A (HIV-1 (isolate JR-CSF, clade B)) (UniProt P20871); experiment: cell-based or functional assay
substance,measurement,setting,value
1495_C14 (PGC14) (antibody),"IC50, Neutralizing Antibody Assay, Virus/Ab Incubation 1 hour",[1],> 50 µg/mL
same,"IC50, Neutralizing Antibody Assay, Virus/Ab Incubation 18 hour",[1],> 50 µg/mL
same,"IC50, Neutralizing Antibody Assay, Virus/Ab Incubation 1 hour",[2],> 50 µg/mL
same,"IC50, Neutralizing Antibody Assay, Virus/Ab Incubation 18 hour",[2],> 50 µg/mL
same,"IC50, Neutralizing Antibody Assay, Virus/Ab Incubation 1 hour",[3],> 50 µg/mL
same,"IC50, Neutralizing Antibody Assay, Virus/Ab Incubation 18 hour",[3],> 50 µg/mL
PGT-143 (4980_N08) (antibody),"IC50, pseudovirus neutralization",[4],> 10 µg/mL
same,"IC50, pseudovirus neutralization",[5],> 10 µg/mL
same,"IC50, pseudovirus neutralization",[6],4.43 µg/mL
same,"IC50, pseudovirus neutralization",[7],> 10 µg/mL
same,"IC50, pseudovirus neutralization",[8],0.0021 µg/mL
same,"IC50, pseudovirus neutralization",[9],> 10 µg/mL
same,"IC50, pseudovirus neutralization",[10],0.618 µg/mL
same,"IC50, pseudovirus neutralization",[11],0.585 µg/mL
same,"IC50, pseudovirus neutralization",[12],0.505 µg/mL
1443_C16 (PG16) (TCN-116) (antibody),IC90 (neutralization of pseudovirus),[13],> 50 µg/mL
same,IC90 (neutralization of pseudovirus),[14],0.207 µg/mL
same,IC90 (neutralization of pseudovirus),[15],> 50 µg/mL
same,"IC50, Neutralizing Antibody Assay, Virus/Ab Incubation 1 hour",[1],0.136 µg/mL
same,"IC50, Neutralizing Antibody Assay, Virus/Ab Incubation 18 hour",[1],0.0435 µg/mL
same,IC90 (neutralization of pseudovirus),[16],> 50 µg/mL
same,IC90 (neutralization of pseudovirus),[17],> 50 µg/mL
same,IC90 (neutralization of pseudovirus),[18],> 50 µg/mL
same,IC90 (neutralization of pseudovirus),[19],> 50 µg/mL
same,"IC50, Neutralizing Antibody Assay, Virus/Ab Incubation 1 hour",[2],< 0.0025 µg/mL
same,"IC50, Neutralizing Antibody Assay, Virus/Ab Incubation 18 hour",[2],< 0.0025 µg/mL
same,"IC50, Neutralizing Antibody Assay, Virus/Ab Incubation 1 hour",[3],0.0211 µg/mL
same,"IC50, Neutralizing Antibody Assay, Virus/Ab Incubation 18 hour",[3],0.0085 µg/mL
5114_A19 (PGT-128) (antibody),EC50,[20],7.8 µg/mL
same,"IC50 (µg/mL), pseudovirus neutralization",[21],> 50 µg/mL
same,Fold IC50 increase relative to wild-type,[22],3 fold
same,Fold IC50 increase relative to wild-type,[23],1.8 fold
PGT-144 (4970_K22) (antibody),"IC50, pseudovirus neutralization",[4],> 10 µg/mL
same,"IC50, pseudovirus neutralization",[5],> 10 µg/mL
same,"IC50, pseudovirus neutralization",[6],> 10 µg/mL
same,"IC50, pseudovirus neutralization",[7],> 10 µg/mL
same,"IC50, pseudovirus neutralization",[8],0.158 µg/mL
same,"IC50, pseudovirus neutralization",[9],> 10 µg/mL
same,"IC50, pseudovirus neutralization",[10],5.12 µg/mL
same,"IC50, pseudovirus neutralization",[11],> 10 µg/mL
same,"IC50, pseudovirus neutralization",[12],> 10 µg/mL
1496_C09 (PG9) (TCN-109) (antibody),IC90 (neutralization of pseudovirus),[14],0.866 µg/mL
same,"IC50, Neutralizing Antibody Assay, Virus/Ab Incubation 1 hour",[1],0.0612 µg/mL
same,"IC50, Neutralizing Antibody Assay, Virus/Ab Incubation 18 hour",[1],0.0571 µg/mL
same,"IC50, Neutralizing Antibody Assay, Virus/Ab Incubation 1 hour",[2],< 0.0025 µg/mL
same,"IC50, Neutralizing Antibody Assay, Virus/Ab Incubation 18 hour",[2],< 0.0025 µg/mL
same,IC50,[24],0.34 µg/mL
same,"IC50, Neutralizing Antibody Assay, Virus/Ab Incubation 1 hour",[3],0.334 µg/mL
same,"IC50, Neutralizing Antibody Assay, Virus/Ab Incubation 18 hour",[3],0.0942 µg/mL
PGV04 (antibody),IC50,[24],0.202 µg/mL
5136_H01 (PGT-131) (antibody),Fold IC50 increase relative to wild-type,[25],2.7 fold
same,Fold IC50 increase relative to wild-type,[26],4.5 fold
same,"IC50 (µg/mL), pseudovirus neutralization",[21],> 50 µg/mL
same,Fold IC50 increase relative to wild-type,[27],1.3 fold
same,Fold IC50 increase relative to wild-type,[22],38 fold
same,Fold IC50 increase relative to wild-type,[28],2.3 fold
same,Fold IC50 increase relative to wild-type,[29],19 fold
same,Fold IC50 increase relative to wild-type,[30],8.8 fold
4838_L06 (PGT-121) (antibody),EC50,[20],> 10 µg/mL
b12 (antibody),IC90 (neutralization of pseudovirus),[13],> 50 µg/mL
same,IC90 (neutralization of pseudovirus),[14],> 50 µg/mL
same,IC90 (neutralization of pseudovirus),[15],> 50 µg/mL
same,IC90 (neutralization of pseudovirus),[16],34.2 µg/mL
same,IC90 (neutralization of pseudovirus),[17],> 50 µg/mL
same,IC90 (neutralization of pseudovirus),[18],> 50 µg/mL
same,IC90 (neutralization of pseudovirus),[19],29.6 µg/mL
4E10 (antibody),IC90 (neutralization of pseudovirus),[13],> 50 µg/mL
same,IC90 (neutralization of pseudovirus),[14],> 50 µg/mL
same,IC90 (neutralization of pseudovirus),[15],23.7 µg/mL
same,IC90 (neutralization of pseudovirus),[16],13.4 µg/mL
same,IC90 (neutralization of pseudovirus),[17],> 50 µg/mL
same,IC90 (neutralization of pseudovirus),[18],> 50 µg/mL
same,IC90 (neutralization of pseudovirus),[19],16.4 µg/mL

# Reference: patent US20240132578A1
